From publication PMC6650551, “Identification of Dephospho-Coenzyme A (Dephospho-CoA) Kinase in Thermococcus kodakarensis and Elucidation of the Entire CoA Biosynthesis Pathway in Archaea” (mBio, 2019)

Experiments:
[1] = substrate: Nc1nc2c(ncn2[C@@H]2O[C@H](COP(=O)(O)OP(=O)(O)OP(=O)(O)O)[C@@H](O)[C@H]2O)c(=O)[nH]1; experiment: purified protein; assay type: biochemical, Thermococcus kodakarensis; conditions: 1 mM dephospho-CoA, varied GTP, 5 mM MgCl2, 300 mM KCl, 50 mM Bicine pH 8.0, 80 °C
[2] = substrate: CC(C)(COP(=O)(O)OP(=O)(O)OC[C@H]1O[C@@H](n2cnc3c(N)ncnc32)[C@H](O)[C@@H]1O)[C@@H](O)C(=O)NCCC(=O)NCCS; experiment: purified protein; assay type: biochemical, Thermococcus kodakarensis; conditions: 5 mM GTP varied dephospho-CoA, 5 mM MgCl2, 300 mM KCl, 50 mM Bicine pH 8.0, 80 °C

B1: TK1697 protein (Tk-DPCK) (Thermococcus kodakarensis KOD1) (protein)
chain: MKMFFRLTRELRDELKRPLGELVRGPIPEPYLKVRGELEKHPVVTVGDVVTENVLKIGVKPIIALYDLKTKRKEYSPEIEDTAVFLTVTNPPGTITKALLDTVRKAFGLAERGRNVHILVSGEEDLAAIPAVLYAPLGTLVLYGQPDEGVVLIKVTPECKRRCAKILASMEVVRDGD
notes: full-length gene in pET21a(+) (NdeI/EcoRI, own stop codon, untagged), expressed in E. coli BL21-CodonPlus(DE3)-RIL; calculated 19,657 Da
Km [1]: 260 ± 60 µM
Vmax [1]: 20.4 µmol/min/mg
kcat [1]: 6.68 s⁻¹
kcat/Km [1]: 25700 M⁻¹ s⁻¹
Km [2]: 140 ± 20 µM
Vmax [2]: 17 µmol/min/mg
kcat [2]: 5.57 s⁻¹
kcat/Km [2]: 40400 M⁻¹ s⁻¹
